Assay results from US20180028658A1 (NEW YORK BLOOD CENTER, published 2018).

Tests used:
[1] = biological target: T1, HIV-1 Env expressed on the surface of ACH-2 cells reactivated with TNF-α (HIV-1); experiment: cell-based or functional assay
[2] = biological target: T2, full-length gp120 monomer (HIV-1 (Yu2 by the materials, not named …, UniProt P35961 32-498)); experiment: ELISA on coated full-length gp120 monomer, OD at 405 nm, 1x PBS as blank
T2 construct: domain: gp120; The tie to strain Yu2 is inferred from 'full-length Yu2 gp120 protein' in the materials. gp120IIIB and gp120BaL were also bought; General statements about 'gp120' are entered under this molecule; also called HIV-1 gp120 monomer; monomeric full-length gp120

[3] = biological target: T3, BG505 SOSIP.664 gp140 trimer (HIV-1 BG505); experiment: SPR (BIAcore)
T3 construct: domain: gp140; Provided by Dr. John P Moore; When cleaved, each protomer is a gp120 chain plus a gp41 ectodomain chain; also called BG505 SOSIP.646; cleavable version gp140 trimer

[4] = biological target: T3, BG505 SOSIP.664 gp140 trimer; experiment: method not given
[5] = biological target: HIV-1 gp41 (strain not stated) (HIV-1); experiment: method not given
[6] = biological target: T3, BG505 SOSIP.664 gp140 trimer; experiment: SPR (BIAcore), Env protein immobilized on CM5 chip, antibody as analyte
[7] = biological target: T2, full-length gp120 monomer; experiment: as above
[8] = biological target: HIV-1 gp41 (strain not stated) (HIV-1); experiment: as above
[9] = biological target: T4, Recombinant gp41HXB2 (ecto-domain aa546 to 682) (HIV-1 HXB2, UniProt P04578 546-682); experiment: ELISA on coated gp41HXB2, OD at 405 nm
T4 construct: range 546-682; Bought from Aviva System Biology Corp; also called gp41 from HIV-1 HXB2 ecto-domain

[10] = biological target: T1, HIV-1 Env expressed on the surface of …; experiment: flow cytometry titration on activated ACH-2 cells, from 20 µg/ml in 1:3 dilutions, FITC second antibody
[11] = biological target: T2, full-length gp120 monomer; experiment: SPR (BIAcore); lower end of the stated KD range
SF162 gp140 trimer = biological target: T5, SF162 gp140 trimer (HIV-1 SF162, UniProt P19550 32-675); experiment: ELISA on coated SF162 gp140 trimer, OD at 405 nm, 1x PBS as blank
T5 construct: domain: gp140; Obtained from the NIH AIDS Reagent Program; also called non-cleavable version of gp140 trimer (SF162); uncleaved SF162 gp140 trimer

[12] = biological target: T3, BG505 SOSIP.664 gp140 trimer; experiment: ELISA on coated BG505 SOSIP.664 gp140 trimer, OD at 405 nm, 1x PBS as blank

Binder	EC50 of cell killing, […]-BLUE cell viability assay on activated ACH-2 latent cells [1]	EC50 (read off the curve) [2]	Kd [3]	Kd [4]	Kd [5]	Kd [6]	koff [6]	kon [6]	Kd [7]	koff [7]	Kd [8]	koff [8]	kon [8]	binding result [9]	EC50 [10]	Kd [11]	EC50 (read off the curve) (SF162 gp140 trimer)	EC50 (read off the curve) [12]
vc-MMAE-NIH45-46 G54W (NYBC-HC-001) (antibody, V domains shown, MC-vc-PAB-MMAE linker payload on cysteines reduced with TCEP (sites and number not stated)) VH: QVRLSQSGGQMKKPGESMRLSCRASGYEFLNCPINWIRLAPGRRPEWMGWLKPRWGAVNYARKFQGRVTMTRDVYSDTAFLELRSLTSDDTAVYFCTRGKYCTARDYYNWDFEHWGRGAPVTVSS VL: EIVLTQSPATLSLSPGETAIISCRTSQSGSLAWYQQRPGQAPRLVIYSGSTRAAGIPDRFSGSRWGADYNLSISNLESGDFGVYYCQQYEFFGQGTKVQVDI	0.85 µg/mL																	
NIH45-46 G54W (antibody, V domains shown, Human IgG1; Obtained from the NIH AIDS Reagent Program and also made recombinantly (VH and VK genes in human b12 Igγ and Igκ backbone vectors, 293T cells); FITC-labelled in the uptake experiments; also called NIH45-45 G54W) VH: QVRLSQSGGQMKKPGESMRLSCRASGYEFLNCPINWIRLAPGRRPEWMGWLKPRWGAVNYARKFQGRVTMTRDVYSDTAFLELRSLTSDDTAVYFCTRGKYCTARDYYNWDFEHWGRGAPVTVSS VL: EIVLTQSPATLSLSPGETAIISCRTSQSGSLAWYQQRPGQAPRLVIYSGSTRAAGIPDRFSGSRWGADYNLSISNLESGDFGVYYCQQYEFFGQGTKVQVDI		~0.5 µg/mL	0.23 to 0.29 nM	~0.1 nM	~1 nM	0.267 nM	5.37e-06 s⁻¹	20100 M⁻¹ s⁻¹	0.11 nM	4.94e-06 s⁻¹	6.75 nM	0.00461 s⁻¹	683000 M⁻¹ s⁻¹	binds	5.2 µg/mL	0.11 to 0.17 nM	~0.2 µg/mL	~0.01 µg/mL
